Assay results published in paper PMC4104448.

Molecular target: T1, Biotinylated human β-glucocerebrosidase (residues 40A-536R) (human)
T1 sequence (P04062 whole entry, looked up): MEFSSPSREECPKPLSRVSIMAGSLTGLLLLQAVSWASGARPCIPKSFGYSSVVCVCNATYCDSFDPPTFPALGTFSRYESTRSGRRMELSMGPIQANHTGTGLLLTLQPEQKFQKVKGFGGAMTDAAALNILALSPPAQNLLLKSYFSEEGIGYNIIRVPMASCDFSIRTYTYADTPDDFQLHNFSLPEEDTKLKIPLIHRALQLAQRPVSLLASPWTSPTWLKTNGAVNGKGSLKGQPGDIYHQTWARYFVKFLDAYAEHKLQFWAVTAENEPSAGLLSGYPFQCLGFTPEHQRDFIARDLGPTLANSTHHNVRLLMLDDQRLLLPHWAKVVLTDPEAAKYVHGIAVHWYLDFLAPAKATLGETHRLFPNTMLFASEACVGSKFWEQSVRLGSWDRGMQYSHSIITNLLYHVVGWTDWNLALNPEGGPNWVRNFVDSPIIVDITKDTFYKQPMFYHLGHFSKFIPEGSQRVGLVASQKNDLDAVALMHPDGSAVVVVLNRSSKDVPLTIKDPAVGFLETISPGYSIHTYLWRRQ
Experiment: SPR; equilibrium binding; about 1,000 RU of biotinylated ligand on a streptavidin-coupled CM5 chip, LIMP-2 as analyte; Biacore T100, 25 °C, 10 mM HEPES pH 7.5, 150 mM NaCl, 0.005% Tween 20; one-site saturation binding model

B1: Human LIMP-2 luminal domain (residues 28-431) produced from HEK293S (GnTI-) cells, with limited glycosylation (domain or fragment)
chain: VFQKAVDQSIEKKIVLRNGTEAFDSWEKPPLPVYTQFYFFNVTNPEEILRGETPRVEEVGPYTYRELRNKANIQFGDNGTTISAVSNKAYVFERDQSVGDPKIDLIRTLNIPVLTVIEWSQVHFLREIIEAMLKAYQQKLFVTHTVDELLWGYKDEILSLIHVFRPDISPYFGLFYEKNGTNDGDYVFLTGEDSYLNFTKIVEWNGKTSLDWWITDKCNMINGTDGDSFHPLITKDEVLYVFPSDFCRSVYITFSDYESVQGLPAFRYKVPAEILANTSDNAGFCIPEGNCLGSGVLNVSICKNGAPIIMSFPHFYQADERFVSAIEGMHPNQEDHETFVDINPLTGIILKAAKRFQINIYVKKLDDFVETGDIRTMVFPVMYLNESVHIDKETASRLKSMINT
modifications: N-linked P-Man9GlcNAc2 (with terminal mannose 6-phosphate) at N325; sugars on all nine N-linked glycosylation sites, limited processing
With B1 the Kd was 1400 nM.
